Assays:
[1] = biological target: T1, PolyrC-Binding Protein PCBP1 (prey6634), prey fragments (Human, UniProt Q15365 1-356); assay: yeast two-hybrid screen, bait VPU_v1 (pB27), Human CEMC7 dT Primed prey library; table of bait-prey interactions
T1 construct: also called polyRC BP1; HNRPE1

[2] = biological target: T2, sterol regulatory element binding protein 2 (hSREBF2, hgx33), prey fragments (Human, UniProt Q12772 1-1141); assay: yeast two-hybrid screen, bait TM_v1 (pB6), Human CEMC7 Random Primed prey library; table of bait-prey interactions
T2 construct: also called SREBP2
T2 sequence: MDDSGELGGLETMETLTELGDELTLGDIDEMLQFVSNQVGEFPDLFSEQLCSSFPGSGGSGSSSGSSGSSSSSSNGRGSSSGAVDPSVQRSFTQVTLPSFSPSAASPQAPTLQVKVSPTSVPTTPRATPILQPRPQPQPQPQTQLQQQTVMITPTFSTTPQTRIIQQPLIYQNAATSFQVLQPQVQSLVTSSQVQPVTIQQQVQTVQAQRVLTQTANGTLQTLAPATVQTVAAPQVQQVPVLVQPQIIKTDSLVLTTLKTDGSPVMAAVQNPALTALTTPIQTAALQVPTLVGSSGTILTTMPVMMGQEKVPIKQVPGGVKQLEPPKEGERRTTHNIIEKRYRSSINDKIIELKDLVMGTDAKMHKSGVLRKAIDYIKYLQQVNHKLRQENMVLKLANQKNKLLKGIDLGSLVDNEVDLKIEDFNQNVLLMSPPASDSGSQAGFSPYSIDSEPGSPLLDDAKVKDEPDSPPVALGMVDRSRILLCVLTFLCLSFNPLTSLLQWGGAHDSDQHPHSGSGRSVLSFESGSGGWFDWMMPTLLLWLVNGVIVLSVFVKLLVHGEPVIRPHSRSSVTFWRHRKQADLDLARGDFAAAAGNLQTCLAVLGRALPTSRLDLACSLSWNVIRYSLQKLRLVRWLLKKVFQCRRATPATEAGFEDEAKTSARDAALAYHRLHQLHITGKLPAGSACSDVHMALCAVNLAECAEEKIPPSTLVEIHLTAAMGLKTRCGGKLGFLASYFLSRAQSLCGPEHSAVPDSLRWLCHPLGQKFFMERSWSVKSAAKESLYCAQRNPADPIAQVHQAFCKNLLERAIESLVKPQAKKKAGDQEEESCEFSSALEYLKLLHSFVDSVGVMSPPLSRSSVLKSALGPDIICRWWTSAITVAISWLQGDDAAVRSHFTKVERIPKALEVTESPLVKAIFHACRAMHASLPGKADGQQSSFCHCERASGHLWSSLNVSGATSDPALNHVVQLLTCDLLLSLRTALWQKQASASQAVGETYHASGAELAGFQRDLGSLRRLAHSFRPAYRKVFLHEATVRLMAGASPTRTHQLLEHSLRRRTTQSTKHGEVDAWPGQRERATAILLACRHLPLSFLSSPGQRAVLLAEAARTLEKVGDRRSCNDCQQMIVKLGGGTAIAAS

[3] = biological target: T3, sterol regulatory element-binding protein 1 (hSREBF1, prey15532), prey fragments (Human, UniProt P36956 1-1147); assay: as above
T3 construct: also called SREBP1; hSREBP 1
T3 sequence: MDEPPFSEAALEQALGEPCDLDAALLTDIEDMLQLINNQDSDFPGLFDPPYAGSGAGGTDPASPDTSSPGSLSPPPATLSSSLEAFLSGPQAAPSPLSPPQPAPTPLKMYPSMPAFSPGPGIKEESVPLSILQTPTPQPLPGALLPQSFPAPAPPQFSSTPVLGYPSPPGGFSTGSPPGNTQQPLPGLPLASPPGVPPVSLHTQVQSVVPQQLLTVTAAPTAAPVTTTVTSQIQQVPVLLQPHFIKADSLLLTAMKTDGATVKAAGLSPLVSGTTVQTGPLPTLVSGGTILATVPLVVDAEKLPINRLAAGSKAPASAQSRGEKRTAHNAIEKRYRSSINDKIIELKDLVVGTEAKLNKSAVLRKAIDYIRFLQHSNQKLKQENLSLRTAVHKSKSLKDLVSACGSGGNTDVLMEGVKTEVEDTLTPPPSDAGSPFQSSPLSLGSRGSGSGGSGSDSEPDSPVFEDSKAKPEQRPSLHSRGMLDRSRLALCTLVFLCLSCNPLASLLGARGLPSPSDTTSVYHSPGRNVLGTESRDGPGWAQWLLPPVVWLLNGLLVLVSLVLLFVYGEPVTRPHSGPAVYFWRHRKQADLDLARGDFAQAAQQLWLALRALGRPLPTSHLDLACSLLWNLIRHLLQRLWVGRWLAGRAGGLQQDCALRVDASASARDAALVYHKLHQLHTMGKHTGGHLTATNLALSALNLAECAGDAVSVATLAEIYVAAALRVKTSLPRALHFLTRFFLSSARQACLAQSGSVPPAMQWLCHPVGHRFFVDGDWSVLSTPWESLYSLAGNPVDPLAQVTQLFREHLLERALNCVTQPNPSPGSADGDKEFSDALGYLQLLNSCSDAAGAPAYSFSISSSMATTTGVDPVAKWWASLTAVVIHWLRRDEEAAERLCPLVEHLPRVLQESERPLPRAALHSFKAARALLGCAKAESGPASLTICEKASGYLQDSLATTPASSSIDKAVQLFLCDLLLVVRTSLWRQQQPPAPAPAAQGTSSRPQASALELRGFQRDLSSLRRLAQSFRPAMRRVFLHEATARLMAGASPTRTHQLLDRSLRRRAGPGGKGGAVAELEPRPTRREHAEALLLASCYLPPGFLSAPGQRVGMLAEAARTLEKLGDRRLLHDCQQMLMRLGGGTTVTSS

[4] = biological target: T4, ATF6 alpha (prey34104, hATF6), prey fragments (Human, UniProt P18850 1-670); assay: as above
T4 construct: also called prey34106
T4 sequence: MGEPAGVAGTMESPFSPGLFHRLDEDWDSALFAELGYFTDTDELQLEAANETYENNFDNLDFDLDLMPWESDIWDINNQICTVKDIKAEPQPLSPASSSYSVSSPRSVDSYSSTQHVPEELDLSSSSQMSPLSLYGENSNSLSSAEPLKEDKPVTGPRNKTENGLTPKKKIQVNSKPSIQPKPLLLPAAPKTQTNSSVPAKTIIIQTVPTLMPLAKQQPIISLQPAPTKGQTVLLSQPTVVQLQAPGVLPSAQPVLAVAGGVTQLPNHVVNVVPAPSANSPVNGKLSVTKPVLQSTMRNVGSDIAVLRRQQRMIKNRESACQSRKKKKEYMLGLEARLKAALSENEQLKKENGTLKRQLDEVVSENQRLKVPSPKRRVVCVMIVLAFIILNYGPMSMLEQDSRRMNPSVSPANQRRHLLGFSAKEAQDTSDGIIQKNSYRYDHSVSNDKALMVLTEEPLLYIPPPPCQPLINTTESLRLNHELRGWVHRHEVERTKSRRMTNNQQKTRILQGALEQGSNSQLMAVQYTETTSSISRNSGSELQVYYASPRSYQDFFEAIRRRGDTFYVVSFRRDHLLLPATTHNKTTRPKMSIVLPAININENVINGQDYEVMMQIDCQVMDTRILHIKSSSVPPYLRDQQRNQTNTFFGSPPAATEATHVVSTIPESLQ

[5] = biological target: Human EIF3S3 (prey024567), prey fragments (Human, UniProt O15372 1-352); assay: yeast two-hybrid screen, bait IN (pB27), CEMC7 oligo dT primed cDNA prey library; table of bait-prey interactions
[6] = biological target: T5, Human HBOA (prey001626), prey fragments (Human, UniProt O95251 1-611); assay: as above
T5 construct: also called HBO1

[7] = biological target: T6, Human RNUT1 (prey024605), prey fragments (Human, UniProt O95149 1-360); assay: yeast two-hybrid screen, bait IN (pB27), CEMC7 random primed cDNA prey library; table of bait-prey interactions
T6 construct: also called Snurportin1; Snurportin
T6 sequence (O95149 whole entry, the tested form may be a part): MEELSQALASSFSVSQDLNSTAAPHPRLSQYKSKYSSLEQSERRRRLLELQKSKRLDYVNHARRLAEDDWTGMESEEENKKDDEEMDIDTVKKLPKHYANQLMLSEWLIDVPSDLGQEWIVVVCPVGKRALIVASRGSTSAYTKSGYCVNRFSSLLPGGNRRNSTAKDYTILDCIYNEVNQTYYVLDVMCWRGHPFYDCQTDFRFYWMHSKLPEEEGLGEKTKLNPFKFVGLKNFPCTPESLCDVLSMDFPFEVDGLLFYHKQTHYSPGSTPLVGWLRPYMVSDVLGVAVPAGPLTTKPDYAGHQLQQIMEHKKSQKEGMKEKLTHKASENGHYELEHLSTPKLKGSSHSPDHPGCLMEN

T5 sequence (O95251 whole entry, the tested form may be a part): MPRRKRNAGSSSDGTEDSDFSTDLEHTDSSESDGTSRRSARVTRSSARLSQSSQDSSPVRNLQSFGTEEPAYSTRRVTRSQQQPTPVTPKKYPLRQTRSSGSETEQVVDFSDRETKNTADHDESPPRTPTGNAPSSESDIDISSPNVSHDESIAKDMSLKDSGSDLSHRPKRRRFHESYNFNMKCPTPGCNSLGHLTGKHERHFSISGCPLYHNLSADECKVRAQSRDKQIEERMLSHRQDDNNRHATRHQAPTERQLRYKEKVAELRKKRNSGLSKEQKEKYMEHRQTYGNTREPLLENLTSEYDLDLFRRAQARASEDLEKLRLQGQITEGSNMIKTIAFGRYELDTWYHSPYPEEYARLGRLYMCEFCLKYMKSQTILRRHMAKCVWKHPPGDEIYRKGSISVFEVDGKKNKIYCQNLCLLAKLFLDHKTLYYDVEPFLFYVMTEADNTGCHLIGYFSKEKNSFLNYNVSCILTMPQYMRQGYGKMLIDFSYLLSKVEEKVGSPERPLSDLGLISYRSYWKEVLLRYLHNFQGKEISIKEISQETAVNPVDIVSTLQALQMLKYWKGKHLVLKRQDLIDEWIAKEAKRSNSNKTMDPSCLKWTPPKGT
Sequence of Human EIF3S3 (prey024567), prey fragments (O15372 whole entry, the tested form may be a part): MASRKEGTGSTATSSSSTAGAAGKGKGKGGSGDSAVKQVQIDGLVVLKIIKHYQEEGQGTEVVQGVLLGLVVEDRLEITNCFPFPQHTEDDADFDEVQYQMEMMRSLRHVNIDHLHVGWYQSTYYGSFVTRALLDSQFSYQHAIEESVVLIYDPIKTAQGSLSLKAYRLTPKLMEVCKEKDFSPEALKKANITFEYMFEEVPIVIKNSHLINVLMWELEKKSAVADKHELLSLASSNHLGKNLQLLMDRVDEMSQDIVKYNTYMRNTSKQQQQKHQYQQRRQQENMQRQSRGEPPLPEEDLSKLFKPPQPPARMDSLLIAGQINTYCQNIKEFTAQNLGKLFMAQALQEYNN
T1 sequence (Q15365 whole entry, the tested form may be a part): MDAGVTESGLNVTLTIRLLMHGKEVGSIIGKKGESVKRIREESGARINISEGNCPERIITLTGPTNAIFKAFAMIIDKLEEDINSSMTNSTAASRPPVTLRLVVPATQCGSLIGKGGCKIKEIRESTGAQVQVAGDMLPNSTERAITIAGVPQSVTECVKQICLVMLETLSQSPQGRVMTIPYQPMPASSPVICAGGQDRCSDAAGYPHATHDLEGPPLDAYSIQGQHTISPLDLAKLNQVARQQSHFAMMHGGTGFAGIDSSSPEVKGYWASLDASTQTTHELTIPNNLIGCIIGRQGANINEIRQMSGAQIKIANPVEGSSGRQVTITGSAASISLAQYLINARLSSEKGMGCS

B1: HIV-1 Vpu, bait VPU_v1 (other)
chain: LQSLQVLAIVALVVATIIAIVVWTIVFIEYRKILRQRKIDRLINRITERAEDSGNESDGDQEELSALVERGHLAPWDVDDL
notes: It holds the N-terminal transmembrane anchor domain
[1]
  binding result: binds

B2: cytoplasmic domain of HIV-1 Env TM Gp41, bait TM_v1 (other)
chain: VVLSIVNRVRQGYSPLSFQTHLPAQRGPDRPDGIEEEGGERDRDRSGPLVDGFLAIIWVDLRSLCLFSYHRLRDLLLIVTRIVELLGRRGWGVLKYWWNLLQYWIQELKNSAVSLLNATAIAVAEGTDRVIEILQRAFRAVLHIPVRIRQGLERALL
notes: also called TM cyto; TM Gp41 cytoplasmic domain
[2]
  binding result: binds
[3]
  binding result: binds
[4]
  binding result: binds

B3: HIV-1 Integrase (IN), bait IN (enzyme)
chain: FLDGIDKAQEEHEKYHSNWRAMASDFNLPPVVAKEIVASCDKCQLKGEAMHGQVDCSPGIWQLDCTHLEGKVILVAVHVASGYIEAEVIPAETGQETAYFLLKLAGRWPVTTIHTDNGSNFTSATVKAACWWAGIKQEFGIPYNPQSQGVVESMNKELKKIIGQVRDQAEHLKTAVQMAVFIHNFKRKGGIGGYSAGERIVDIIATDIQTKELQKQITKIQNFRVYYRDSRDPLWKGPAKLLWKGEGAVVIQDNSDIKVVPRRKAKIIRDYGKQMAGDDCVAGRQDED
[5]
  binding result: binds
[6]
  binding result: binds
[7]
  binding result: binds

— patent US20060034860A1 (CELLVIR, published 2006)
